Numbered stars: 1 amine (or outer) side, 2 acyl side, 3 side chain; on linkers, the order of the positions; unused ones are H or OH. Bridge positions count the residues as written; N and C are the ends. Side chains are listed from the residue outwards. Ends that are not written are not given here. * marks the point of attachment. C20 diacid = O=C(O)CCCCCCCCCCCCCCCCCCC(=O)*; γGlu = O=C(O)[C@H](CCC(=O)[*:2])N[*:1]; AEEA = NCCOCCOCC(=O)O
T1: human calcitonin receptor (human, UniProt P30988 25-474)
T1 sequence (looked up): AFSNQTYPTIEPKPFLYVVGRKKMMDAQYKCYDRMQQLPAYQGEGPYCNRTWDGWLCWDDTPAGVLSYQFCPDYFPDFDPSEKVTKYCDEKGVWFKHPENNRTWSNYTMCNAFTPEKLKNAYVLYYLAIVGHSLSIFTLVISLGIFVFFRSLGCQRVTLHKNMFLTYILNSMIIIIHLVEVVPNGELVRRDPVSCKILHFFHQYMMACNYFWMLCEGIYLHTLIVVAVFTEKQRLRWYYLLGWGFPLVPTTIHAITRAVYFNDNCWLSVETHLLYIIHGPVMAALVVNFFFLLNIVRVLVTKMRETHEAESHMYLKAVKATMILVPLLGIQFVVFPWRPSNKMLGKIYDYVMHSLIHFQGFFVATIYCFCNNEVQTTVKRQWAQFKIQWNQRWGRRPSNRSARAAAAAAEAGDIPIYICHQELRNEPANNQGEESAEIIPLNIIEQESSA

B1: N^ε1-[2-[2-[2-[[(4S)-4-carboxy-4-(19-carboxynonadecanoylamino)butanoyl]amino]ethoxy]ethoxy]acetyl]-[Arg17,Pro21,Pro27,Pro34]-h-amylin (peptide)
peptide: K([AEEA-γGlu-C20 diacid])CNTATCATQRLANFLRHSSPNFGAIPSSTNVGPNTY-NH2
modifications: disulfide 2-7; N-terminus assumed
SMILES: CC[C@H](C)[C@H](NC(=O)[C@H](C)NC(=O)CNC(=O)[C@H](Cc1ccccc1)NC(=O)[C@H](CC(N)=O)NC(=O)[C@@H]1CCCN1C(=O)[C@H](CO)NC(=O)[C@H](CO)NC(=O)[C@H](Cc1c[nH]cn1)NC(=O)[C@H](CCCNC(=N)N)NC(=O)[C@H](CC(C)C)NC(=O)[C@H](Cc1ccccc1)NC(=O)[C@H](CC(N)=O)NC(=O)[C@H](C)NC(=O)[C@H](CC(C)C)NC(=O)[C@H](CCCNC(=N)N)NC(=O)[C@H](CCC(N)=O)NC(=O)[C@@H](NC(=O)[C@H](C)NC(=O)[C@@H]1CSSC[C@H](NC(=O)[C@@H](N)CCCCNC(=O)COCCOCCNC(=O)CC[C@H](NC(=O)CCCCCCCCCCCCCCCCCCC(=O)O)C(=O)O)C(=O)N[C@@H](CC(N)=O)C(=O)N[C@@H]([C@@H](C)O)C(=O)N[C@@H](C)C(=O)N[C@@H]([C@@H](C)O)C(=O)N1)[C@@H](C)O)C(=O)N1CCC[C@H]1C(=O)N[C@@H](CO)C(=O)N[C@@H](CO)C(=O)N[C@H](C(=O)N[C@@H](CC(N)=O)C(=O)N[C@H](C(=O)NCC(=O)N1CCC[C@H]1C(=O)N[C@@H](CC(N)=O)C(=O)N[C@H](C(=O)N[C@@H](Cc1ccc(O)cc1)C(N)=O)[C@@H](C)O)C(C)C)[C@@H](C)O
notes: h-amylin derivative; disulfide bridge and C-terminal amide as told for human amylin; also called compound 50
B2: N^ε1-[(4S)-4-carboxy-4-(19-carboxynonadecanoylamino)butanoyl]-[Arg17,Pro21,Pro27,Glu35]-h-amylin (peptide)
peptide: K([γGlu-C20 diacid])CNTATCATQRLANFLRHSSPNFGAIPSSTNVGSETY-NH2
modifications: disulfide 2-7; N-terminus assumed
SMILES: CC[C@H](C)[C@H](NC(=O)[C@H](C)NC(=O)CNC(=O)[C@H](Cc1ccccc1)NC(=O)[C@H](CC(N)=O)NC(=O)[C@@H]1CCCN1C(=O)[C@H](CO)NC(=O)[C@H](CO)NC(=O)[C@H](Cc1c[nH]cn1)NC(=O)[C@H](CCCNC(=N)N)NC(=O)[C@H](CC(C)C)NC(=O)[C@H](Cc1ccccc1)NC(=O)[C@H](CC(N)=O)NC(=O)[C@H](C)NC(=O)[C@H](CC(C)C)NC(=O)[C@H](CCCNC(=N)N)NC(=O)[C@H](CCC(N)=O)NC(=O)[C@@H](NC(=O)[C@H](C)NC(=O)[C@@H]1CSSC[C@H](NC(=O)[C@@H](N)CCCCNC(=O)CC[C@H](NC(=O)CCCCCCCCCCCCCCCCCCC(=O)O)C(=O)O)C(=O)N[C@@H](CC(N)=O)C(=O)N[C@@H]([C@@H](C)O)C(=O)N[C@@H](C)C(=O)N[C@@H]([C@@H](C)O)C(=O)N1)[C@@H](C)O)C(=O)N1CCC[C@H]1C(=O)N[C@@H](CO)C(=O)N[C@@H](CO)C(=O)N[C@H](C(=O)N[C@@H](CC(N)=O)C(=O)N[C@H](C(=O)NCC(=O)N[C@@H](CO)C(=O)N[C@@H](CCC(=O)O)C(=O)N[C@H](C(=O)N[C@@H](Cc1ccc(O)cc1)C(N)=O)[C@@H](C)O)C(C)C)[C@@H](C)O
notes: h-amylin derivative; disulfide bridge and C-terminal amide as told for human amylin; also called compound 27
B3: N^ε1-[(4S)-4-carboxy-4-(19-carboxynonadecanoylamino)butanoyl]-[Arg17,Pro21,Pro27,Lys35]-h-amylin (peptide)
peptide: K([γGlu-C20 diacid])CNTATCATQRLANFLRHSSPNFGAIPSSTNVGSKTY-NH2
modifications: disulfide 2-7; N-terminus assumed
SMILES: CC[C@H](C)[C@H](NC(=O)[C@H](C)NC(=O)CNC(=O)[C@H](Cc1ccccc1)NC(=O)[C@H](CC(N)=O)NC(=O)[C@@H]1CCCN1C(=O)[C@H](CO)NC(=O)[C@H](CO)NC(=O)[C@H](Cc1c[nH]cn1)NC(=O)[C@H](CCCNC(=N)N)NC(=O)[C@H](CC(C)C)NC(=O)[C@H](Cc1ccccc1)NC(=O)[C@H](CC(N)=O)NC(=O)[C@H](C)NC(=O)[C@H](CC(C)C)NC(=O)[C@H](CCCNC(=N)N)NC(=O)[C@H](CCC(N)=O)NC(=O)[C@@H](NC(=O)[C@H](C)NC(=O)[C@@H]1CSSC[C@H](NC(=O)[C@@H](N)CCCCNC(=O)CC[C@H](NC(=O)CCCCCCCCCCCCCCCCCCC(=O)O)C(=O)O)C(=O)N[C@@H](CC(N)=O)C(=O)N[C@@H]([C@@H](C)O)C(=O)N[C@@H](C)C(=O)N[C@@H]([C@@H](C)O)C(=O)N1)[C@@H](C)O)C(=O)N1CCC[C@H]1C(=O)N[C@@H](CO)C(=O)N[C@@H](CO)C(=O)N[C@H](C(=O)N[C@@H](CC(N)=O)C(=O)N[C@H](C(=O)NCC(=O)N[C@@H](CO)C(=O)N[C@@H](CCCCN)C(=O)N[C@H](C(=O)N[C@@H](Cc1ccc(O)cc1)C(N)=O)[C@@H](C)O)C(C)C)[C@@H](C)O
notes: h-amylin derivative; disulfide bridge and C-terminal amide as told for human amylin; also called compound 35
B4: N^ε1-[(4S)-4-carboxy-4-[[(4S)-4-carboxy-4-(19-carboxynonadecanoylamino)butanoyl]amino]butanoyl]-[Asp14,Arg17,Pro21,Pro27,Arg35]-h-amylin (peptide)
peptide: K([γGlu-γGlu-C20 diacid])CNTATCATQRLADFLRHSSPNFGAIPSSTNVGSRTY-NH2
modifications: disulfide 2-7; N-terminus assumed
SMILES: CC[C@H](C)[C@H](NC(=O)[C@H](C)NC(=O)CNC(=O)[C@H](Cc1ccccc1)NC(=O)[C@H](CC(N)=O)NC(=O)[C@@H]1CCCN1C(=O)[C@H](CO)NC(=O)[C@H](CO)NC(=O)[C@H](Cc1c[nH]cn1)NC(=O)[C@H](CCCNC(=N)N)NC(=O)[C@H](CC(C)C)NC(=O)[C@H](Cc1ccccc1)NC(=O)[C@H](CC(=O)O)NC(=O)[C@H](C)NC(=O)[C@H](CC(C)C)NC(=O)[C@H](CCCNC(=N)N)NC(=O)[C@H](CCC(N)=O)NC(=O)[C@@H](NC(=O)[C@H](C)NC(=O)[C@@H]1CSSC[C@H](NC(=O)[C@@H](N)CCCCNC(=O)CC[C@H](NC(=O)CC[C@H](NC(=O)CCCCCCCCCCCCCCCCCCC(=O)O)C(=O)O)C(=O)O)C(=O)N[C@@H](CC(N)=O)C(=O)N[C@@H]([C@@H](C)O)C(=O)N[C@@H](C)C(=O)N[C@@H]([C@@H](C)O)C(=O)N1)[C@@H](C)O)C(=O)N1CCC[C@H]1C(=O)N[C@@H](CO)C(=O)N[C@@H](CO)C(=O)N[C@H](C(=O)N[C@@H](CC(N)=O)C(=O)N[C@H](C(=O)NCC(=O)N[C@@H](CO)C(=O)N[C@@H](CCCNC(=N)N)C(=O)N[C@H](C(=O)N[C@@H](Cc1ccc(O)cc1)C(N)=O)[C@@H](C)O)C(C)C)[C@@H](C)O
notes: h-amylin derivative; disulfide bridge and C-terminal amide as told for human amylin; also called compound 52
B5: N^ε1-[(4S)-4-carboxy-4-[[(4S)-4-carboxy-4-(19-carboxynonadecanoylamino)butanoyl]amino]butanoyl]-[Asp14,Arg17,Pro21,Pro27,Asp35]-h-amylin (peptide)
peptide: K([γGlu-γGlu-C20 diacid])CNTATCATQRLADFLRHSSPNFGAIPSSTNVGSDTY-NH2
modifications: disulfide 2-7; N-terminus assumed
SMILES: CC[C@H](C)[C@H](NC(=O)[C@H](C)NC(=O)CNC(=O)[C@H](Cc1ccccc1)NC(=O)[C@H](CC(N)=O)NC(=O)[C@@H]1CCCN1C(=O)[C@H](CO)NC(=O)[C@H](CO)NC(=O)[C@H](Cc1c[nH]cn1)NC(=O)[C@H](CCCNC(=N)N)NC(=O)[C@H](CC(C)C)NC(=O)[C@H](Cc1ccccc1)NC(=O)[C@H](CC(=O)O)NC(=O)[C@H](C)NC(=O)[C@H](CC(C)C)NC(=O)[C@H](CCCNC(=N)N)NC(=O)[C@H](CCC(N)=O)NC(=O)[C@@H](NC(=O)[C@H](C)NC(=O)[C@@H]1CSSC[C@H](NC(=O)[C@@H](N)CCCCNC(=O)CC[C@H](NC(=O)CC[C@H](NC(=O)CCCCCCCCCCCCCCCCCCC(=O)O)C(=O)O)C(=O)O)C(=O)N[C@@H](CC(N)=O)C(=O)N[C@@H]([C@@H](C)O)C(=O)N[C@@H](C)C(=O)N[C@@H]([C@@H](C)O)C(=O)N1)[C@@H](C)O)C(=O)N1CCC[C@H]1C(=O)N[C@@H](CO)C(=O)N[C@@H](CO)C(=O)N[C@H](C(=O)N[C@@H](CC(N)=O)C(=O)N[C@H](C(=O)NCC(=O)N[C@@H](CO)C(=O)N[C@@H](CC(=O)O)C(=O)N[C@H](C(=O)N[C@@H](Cc1ccc(O)cc1)C(N)=O)[C@@H](C)O)C(C)C)[C@@H](C)O
notes: h-amylin derivative; disulfide bridge and C-terminal amide as told for human amylin; also called compound 2
B6: N{Alpha-1}-[(4S)-4-carboxy-4-(19-carboxynonadecanoylamino)butanoyl]-[Glu14,Arg17,Pro21,Pro27,Lys34]-h-amylin (peptide)
peptide: {C20 diacid-γGlu}-KCNTATCATQRLAEFLRHSSPNFGAIPSSTNVGKNTY-NH2
modifications: disulfide 2-7
SMILES: CC[C@H](C)[C@H](NC(=O)[C@H](C)NC(=O)CNC(=O)[C@H](Cc1ccccc1)NC(=O)[C@H](CC(N)=O)NC(=O)[C@@H]1CCCN1C(=O)[C@H](CO)NC(=O)[C@H](CO)NC(=O)[C@H](Cc1c[nH]cn1)NC(=O)[C@H](CCCNC(=N)N)NC(=O)[C@H](CC(C)C)NC(=O)[C@H](Cc1ccccc1)NC(=O)[C@H](CCC(=O)O)NC(=O)[C@H](C)NC(=O)[C@H](CC(C)C)NC(=O)[C@H](CCCNC(=N)N)NC(=O)[C@H](CCC(N)=O)NC(=O)[C@@H](NC(=O)[C@H](C)NC(=O)[C@@H]1CSSC[C@H](NC(=O)[C@H](CCCCN)NC(=O)CC[C@H](NC(=O)CCCCCCCCCCCCCCCCCCC(=O)O)C(=O)O)C(=O)N[C@@H](CC(N)=O)C(=O)N[C@@H]([C@@H](C)O)C(=O)N[C@@H](C)C(=O)N[C@@H]([C@@H](C)O)C(=O)N1)[C@@H](C)O)C(=O)N1CCC[C@H]1C(=O)N[C@@H](CO)C(=O)N[C@@H](CO)C(=O)N[C@H](C(=O)N[C@@H](CC(N)=O)C(=O)N[C@H](C(=O)NCC(=O)N[C@@H](CCCCN)C(=O)N[C@@H](CC(N)=O)C(=O)N[C@H](C(=O)N[C@@H](Cc1ccc(O)cc1)C(N)=O)[C@@H](C)O)C(C)C)[C@@H](C)O
notes: h-amylin derivative; disulfide bridge and C-terminal amide as told for human amylin; also called compound 36

Molecular target: T1, human calcitonin receptor
Assay: cell-based or functional assay

| Binder | hCTR funct. EC50 |
| --- | --- |
| B1 | 0.662 nM |
| B2 | 3 nM |
| B3 | 5.46 nM |
| B4 | 14.1 nM |
| B5 | 3 nM |
| B6 | 1.28 nM |

From patent US20140087995A1 (published 2014)
